The record followed here is paper PMC2195916.

For test [1], the target named is C4b-binding protein (C4bp) (human) (UniProt P04003). The test is described as follows: flow cytometry on cells. In general terms: Flow cytometry measures light scatter and fluorescence of single cells or particles in a stream.
The target in test [2] is Por1B of N. gonorrhoeae strain MS11 (Neisseria gonorrhoeae strain MS11). The test is described as follows: flow cytometry on cells.

With C4b (natural protein), the percent decrease of C4bp binding to MS11 (C4b in 60-fold molar excess) in test [1] was 50%.

In test [2], “C4b-binding protein (C4bp) (from UniProt P04003 49-597; P20851 18-252) (complex)” gave a percent decrease of binding in 575 mM NaCl of 85% and a percent decrease of binding with 125 units of heparin of more than 90%.
